We go through 27 molecules from patent US20260167699A1 (Chugai, published 2026).

One experiment has as its target T1, FcγRIIIa (human, UniProt P08637 17-208).
T1 construct: extracellular domain; also called 3a; FcγRIIIa extracellular domain
Put plainly: SPR (Biacore).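 Further: antibody variants captured on an SPR sensor chip, with FcγRIIIa passed over as analyte in HBS-EP+ buffer at 25 °C.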

Experiment [1] addresses T2, FcγRIIIa extracellular domain, C-terminal His tag (human, UniProt P08637 17-208).
T2 construct: extracellular domain; also called 3a
The experiment is described as follows: SPR, binding activity relative to GpH7-A5/GpH7-B3/GpL16-k0 (=100).

T2 sequence (P08637 other isoform, or with tags, fused parts or gaps): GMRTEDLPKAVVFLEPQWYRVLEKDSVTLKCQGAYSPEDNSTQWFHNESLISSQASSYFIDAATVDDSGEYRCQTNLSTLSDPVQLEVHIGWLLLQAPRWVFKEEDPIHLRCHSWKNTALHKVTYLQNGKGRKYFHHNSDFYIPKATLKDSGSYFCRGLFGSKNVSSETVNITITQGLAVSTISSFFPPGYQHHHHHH
T1 sequence (P08637 other isoform, or with tags, fused parts or gaps): as above

B1: GpH7-A5/GpH7-B3 variant T335_10E/GpL16-k0 (antibody, human IgG1, kappa)
heavy 1: not shown
heavy 2: not shown
light: DIVMTQSPLSLPVTPGEPASISCQASESLVHSNRNTYLHWYLQKPGQSPQLLIYKVSNRFSGVPDRFSGSGSGTDFTLKISRVEAEDVGVYYCSQNTHVPPTFGQGTKVEIERTVAAPSVFIFPPSDEQLKSGTASVVCLLNNFYPREAKVQWKVDNALQSGNSQESVTEQDSKDSTYSLSSTLTLSKADYEKHKVYACEVTHQGLSSPVTKSFNRGEC
notes: copies: 1 + 1 + 2
For the molecule B1, the “He/Con 3a” value with FcγRIIIa is 102 % of GpH7-A5/GpH7-B3/GpL16-k0.

B2: GpH7-A5/GpH7-B3 variant H268_05P/GpL16-k0 (antibody, human IgG1, kappa)
heavy 1: not shown
heavy 2: not shown
light: B1 light
notes: He Ab; copies: 1 + 1 + 2
Take B2: in experiment [1], the “He/Con 3a” value came out at 75.6%.

B3: GpH7-A5/GpH7-B3 variant T335_12R/GpL16-k0 (antibody, human IgG1, kappa)
heavy 1: not shown
heavy 2: not shown
light: B1 light
notes: copies: 1 + 1 + 2
B3: the “He/Con 3a” value in the experiment with FcγRIIIa is 93.1 % of GpH7-A5/GpH7-B3/GpL16-k0.

B4: GpH7-A5/GpH7-B3 variant A327_13S/GpL16-k0 (antibody, human IgG1, kappa)
heavy 1: not shown
heavy 2: not shown
light: B1 light
notes: He Ab; copies: 1 + 1 + 2
With B4, in experiment [1], the “He/Con 3a” value is 66.7%.

B5: GpH7-A5/GpH7-B3 variant A327_18N/GpL16-k0 (antibody, human IgG1, kappa)
heavy 1: not shown
heavy 2: not shown
light: B1 light
notes: He Ab; copies: 1 + 1 + 2
As for B5, the “He/Con 3a” value in experiment [1] was 62.8%.

B6: GpH7-A5/GpH7-B3 variant Y300_13S/GpL16-k0 (antibody, human IgG1, kappa)
heavy 1: not shown
heavy 2: not shown
light: B1 light
notes: copies: 1 + 1 + 2
With B6, the “He/Con 3a” value with FcγRIIIa is 80.3 % of GpH7-A5/GpH7-B3/GpL16-k0.

B7: GpH7-A5/GpH7-B3 variant Y296_08L/GpL16-k0 (antibody, human IgG1, kappa)
heavy 1: not shown
heavy 2: not shown
light: B1 light
notes: copies: 1 + 1 + 2
Turning to B7, the “He/Con 3a” value with FcγRIIIa was 72.4 % of GpH7-A5/GpH7-B3/GpL16-k0.

B8: GpH7-A5/GpH7-B3 variant T335_11K/GpL16-k0 (antibody, human IgG1, kappa)
heavy 1: not shown
heavy 2: not shown
light: B1 light
notes: copies: 1 + 1 + 2
Consider B8, for which, in the experiment with FcγRIIIa, the “He/Con 3a” value was 91.7 % of GpH7-A5/GpH7-B3/GpL16-k0.

B9: GpH7-A5/GpH7-B3 variant V266_06M/GpL16-k0 (antibody, human IgG1, kappa)
heavy 1: not shown
heavy 2: not shown
light: B1 light
notes: copies: 1 + 1 + 2
For the molecule B9, the “He/Con 3a” value with FcγRIIIa was 84.9 % of GpH7-A5/GpH7-B3/GpL16-k0.

B10: GpH7-A5/GpH7-B3 variant Y300_09D/GpL16-k0 (antibody, human IgG1, kappa)
heavy 1: not shown
heavy 2: not shown
light: B1 light
notes: copies: 1 + 1 + 2
As for B10, the “He/Con 3a” value with FcγRIIIa was 104 % of GpH7-A5/GpH7-B3/GpL16-k0.

B11: GpH7-A5/GpH7-B3 variant Y296_06M/GpL16-k0 (antibody, human IgG1, kappa)
heavy 1: not shown
heavy 2: not shown
light: B1 light
notes: copies: 1 + 1 + 2
B11: the “He/Con 3a” value in the experiment with FcγRIIIa was 74.6 % of GpH7-A5/GpH7-B3/GpL16-k0.

B12: GpH7-A5/GpH7-B3 variant Y300_03V/GpL16-k0 (antibody, human IgG1, kappa)
heavy 1: not shown
heavy 2: not shown
light: B1 light
notes: copies: 1 + 1 + 2
On to B12, for which, in the experiment with FcγRIIIa, the “He/Con 3a” value was 83.8 % of GpH7-A5/GpH7-B3/GpL16-k0.

B13: GpH7-A5/GpH7-B3 variant Y300_04F/GpL16-k0 (antibody, human IgG1, kappa)
heavy 1: not shown
heavy 2: not shown
light: B1 light
notes: copies: 1 + 1 + 2
Consider B13, for which, in the experiment with FcγRIIIa, the “He/Con 3a” value was 100 % of GpH7-A5/GpH7-B3/GpL16-k0.

B14: GpH7-A5/GpH7-B3 variant Y300_14T/GpL16-k0 (antibody, human IgG1, kappa)
heavy 1: not shown
heavy 2: not shown
light: B1 light
notes: copies: 1 + 1 + 2
On to B14, for which, in the experiment with FcγRIIIa, the “He/Con 3a” value was 92.8 % of GpH7-A5/GpH7-B3/GpL16-k0.

B15: GpH7-A5/GpH7-B3 variant Y300_08L/GpL16-k0 (antibody, human IgG1, kappa)
heavy 1: not shown
heavy 2: not shown
light: B1 light
notes: copies: 1 + 1 + 2
With B15, in the experiment with FcγRIIIa, the “He/Con 3a” value was 114 % of GpH7-A5/GpH7-B3/GpL16-k0.

B16: GpH7-A5/GpH7-B3 variant Y296_18N/GpL16-k0 (antibody, human IgG1, kappa)
heavy 1: not shown
heavy 2: not shown
light: B1 light
notes: copies: 1 + 1 + 2
Regarding B16, in the experiment with FcγRIIIa, the “He/Con 3a” value is 67.9 % of GpH7-A5/GpH7-B3/GpL16-k0.

B17: GpH7-A5/GpH7-B3 variant V266_02A/GpL16-k0 (antibody, human IgG1, kappa)
heavy 1: not shown
heavy 2: not shown
light: B1 light
notes: copies: 1 + 1 + 2
Regarding B17, in the experiment with FcγRIIIa, the “He/Con 3a” value is 56.8 % of GpH7-A5/GpH7-B3/GpL16-k0.

B18: GpH7-A5/GpH7-B3 variant Y296_14T/GpL16-k0 (antibody, human IgG1, kappa)
heavy 1: not shown
heavy 2: not shown
light: B1 light
notes: copies: 1 + 1 + 2
In the case of B18, in the experiment with FcγRIIIa, the “He/Con 3a” value was 60.7 % of GpH7-A5/GpH7-B3/GpL16-k0.

B19: GpH7-A5/GpH7-B3 variant A327_10E/GpL16-k0 (antibody, human IgG1, kappa)
heavy 1: not shown
heavy 2: not shown
light: B1 light
notes: He Ab; copies: 1 + 1 + 2
On to B19, for which the “He/Con 3a” value in experiment [1] amounted to 70.5%.

B20: GpH7-A5/GpH7-B3 variant A327_20W/GpL16-k0 (antibody, human IgG1, kappa)
heavy 1: not shown
heavy 2: not shown
light: B1 light
notes: He Ab; copies: 1 + 1 + 2
With B20, the “He/Con 3a” value in experiment [1] worked out at 52.6%.

B21: GpH7-A5/GpH7-B3 variant A327_06M/GpL16-k0 (antibody, human IgG1, kappa)
heavy 1: not shown
heavy 2: not shown
light: B1 light
notes: He Ab; copies: 1 + 1 + 2
In the case of B21, the “He/Con 3a” value in experiment [1] was 54%.

B22: GpH7-A5/GpH7-B3 variant A327_19Q/GpL16-k0 (antibody, human IgG1, kappa)
heavy 1: not shown
heavy 2: not shown
light: B1 light
notes: He Ab; copies: 1 + 1 + 2
On to B22, for which the “He/Con 3a” value in experiment [1] is 54%.

B23: GpH7-A5/GpH7-B3 variant T335_19Q/GpL16-k0 (antibody, human IgG1, kappa)
heavy 1: not shown
heavy 2: not shown
light: B1 light
notes: copies: 1 + 1 + 2
Take B23: the “He/Con 3a” value in the experiment with FcγRIIIa is 97.7 % of GpH7-A5/GpH7-B3/GpL16-k0.

B24: GpH7-A5/GpH7-B3 variant Y296_04F/GpL16-k0 (antibody, human IgG1, kappa)
heavy 1: not shown
heavy 2: not shown
light: B1 light
notes: copies: 1 + 1 + 2
Take B24: the “He/Con 3a” value with FcγRIIIa is 79.5 % of GpH7-A5/GpH7-B3/GpL16-k0.

B25: GpH7-A5/GpH7-B3 variant Y296_19Q/GpL16-k0 (antibody, human IgG1, kappa)
heavy 1: not shown
heavy 2: not shown
light: B1 light
notes: copies: 1 + 1 + 2
As to B25, the “He/Con 3a” value with FcγRIIIa was 71.4 % of GpH7-A5/GpH7-B3/GpL16-k0.

B26: GpH7-A5/GpH7-B3 variant T335_16H/GpL16-k0 (antibody, human IgG1, kappa)
heavy 1: not shown
heavy 2: not shown
light: B1 light
notes: copies: 1 + 1 + 2
Consider B26, for which the “He/Con 3a” value with FcγRIIIa was 99.3 % of GpH7-A5/GpH7-B3/GpL16-k0.

B27: GpH7-A5/GpH7-B3 variant Y300_20W/GpL16-k0 (antibody, human IgG1, kappa)
heavy 1: not shown
heavy 2: not shown
light: B1 light
notes: copies: 1 + 1 + 2
On to B27, for which the “He/Con 3a” value with FcγRIIIa was 101 % of GpH7-A5/GpH7-B3/GpL16-k0.
